# Measured values as given in patent publication US20230057987A1 (published 2023).
# T1: CT45 (CT45A1, A2, A3, A5 to A10); CT45-IP peptide on HLA-A*02:01 (human)
# T1 peptide: KIFEMLEGV
# T2: similar peptide SP-05-0007, source protein not stated peptide on HLA-A*02:01 (human)
# T2 peptide: KIFPALCTV
# T3: similar peptide SP-05-0010, source protein not stated peptide on HLA-A*02:01 (human)
# T3 peptide: RIFETVNSV
# T4: similar peptide SP-05-0005, source protein not stated peptide on HLA-A*02:01 (human)
# T4 peptide: KIEEFLEAV
# T5: similar peptide SP-05-0003, source protein not stated peptide on HLA-A*02:01 (human)
# T5 peptide: KVTEMLVNV
# T6: similar peptide SP-05-0006, source protein not stated peptide on HLA-A*02:01 (human)
# T6 peptide: KIAELLENV
# T7: similar peptide SP-05-0009, source protein not stated peptide on HLA-A*02:01 (human)
# T7 peptide: KIIDLLPKV
# T8: similar peptide SP-05-0001, source protein not stated peptide on HLA-A*02:01 (human)
# T8 peptide: HIMEHLEGV
# T9: similar peptide SP-05-0002, source protein not stated peptide on HLA-A*02:01 (human)
# T9 peptide: KIFSGLLKV
# T10: similar peptide SP-05-0008, source protein not stated peptide on HLA-A*02:01 (human)
# T10 peptide: KILDELEKV
# T11: similar peptide SP-05-0004, source protein not stated peptide on HLA-A*02:01 (human)
# T11 peptide: KIWEWLVGV
# T12: CT45-IP alanine variant, position 8 peptide on HLA-A*02:01 (human)
# T12 peptide: KIFEMLEAV
# T13: CT45-IP alanine variant, position 1 peptide on HLA-A*02:01 (human)
# T13 peptide: AIFEMLEGV
# T14: CT45-IP alanine variant, position 5 peptide on HLA-A*02:01 (human)
# T14 peptide: KIFEALEGV
# Key:
# [1] = biological target: T1, CT45 (CT45A1, A2, A3, A5 to A10); …; test: CT45-IP-HLA-A*02 dextramer on T cells with TCR mRNA; TCR found by tetramer sorting; full-length, on cells
# [2] = biological target: CT45-IP-HLA-A*02 dextramer (human); test: flow cytometry, dextramer staining of TCR-mRNA electroporated T cells, gated on CD3+
# [3] = biological target: CT45-IP antigenic peptide (…) in complex with HLA-A*02 presented on cells (peptide-loaded T2 cells; NCIH1703 and A375 tumor cells) (human); test: cell-based or functional assay
# [4] = biological target: T2, similar peptide SP-05-0007, source …; test: killing
# [5] = biological target: T3, similar peptide SP-05-0010, source …; test: killing
# [6] = biological target: T4, similar peptide SP-05-0005, source …; test: killing
# [7] = biological target: T5, similar peptide SP-05-0003, source …; test: killing
# [8] = biological target: T6, similar peptide SP-05-0006, source …; test: killing
# [9] = biological target: T7, similar peptide SP-05-0009, source …; test: killing
# [10] = biological target: T8, similar peptide SP-05-0001, source …; test: killing
# [11] = biological target: T9, similar peptide SP-05-0002, source …; test: killing
# [12] = biological target: T10, similar peptide SP-05-0008, source …; test: killing
# [13] = biological target: T1, CT45 (CT45A1, A2, A3, A5 to A10); …; test: luciferase release, 24 h, 1:1; CD8+ T cells with TCR mRNA, T2 cells with titrated peptide; full-length, on cells
# [14] = biological target: T11, similar peptide SP-05-0004, source …; test: killing
# [15] = biological target: T12, CT45-IP alanine variant, position 8 …; test: killing
# [16] = biological target: T13, CT45-IP alanine variant, position 1 …; test: killing
# [17] = biological target: T14, CT45-IP alanine variant, position 5 …; test: killing
dextramer-positive events [1] [%],"surface expression, % positive events by CT45-IP-HLA-A2*02 dextramer staining [2] [%]",EC50 of peptide [13] [nM],Binder,"EC50, half maximal killing capacity (functional avidity; CT45-IP peptide titration on T2 cells, luciferase release) [3] [nM]",binding result [4],binding result [5],binding result [6],binding result [7],binding result [8],binding result [9],binding result [10],binding result [11],binding result [12],binding result [14],binding result [15],binding result [16],binding result [17]
44,44,0.15,"TCR-9 (TCR, V domains shown) Valpha: EDVEQSLFLSVREGDSSVINCTYTDSSSTYLYWYKQEPGAGLQLLTYIFSNMDMKQDQRLTVLLNKKDKHLSLRIADTQTGDSAIYFCAEKETAGNKLTFGGGTRVLVKP Vbeta: EPEVTQTPSHQVTQMGQEVILRCVPISNHLYFYWYRQILGQKVEFLVSFYNNEISEKSEIFDDQFSVERPDGSNFTLKIRSTKLEDSAMYFCASTVQSPRTNEQFFGPGTRLTVL",0.15,no recognition,no recognition,no recognition,no recognition,no recognition,no recognition,no recognition,no recognition,no recognition,,,,
27.2,27.2,1.02,"TCR-3 (TCR, V domains shown) Valpha: QKITQTQPGMFVQEKEAVTLDCTYDTSDQSYGLFWYKQPSSGEMIFLIYQGSYDEQNATEGRYSLNFQKARKSANLVISASQLGDSAMYFCGYSNYQLIWGAGTKLIIKP Vbeta: QVTQNPRYLITVTGKKLTVTCSQNMNHEYMSWYRQDPGLGLRQIYYSMNVEVTDKGDVPEGYKVSRKEKRNFPLILESPSPNQTSLYFCASREGTGGYQPQHFGDGTRLSIL",1.02,no recognition,no recognition,no recognition,no recognition,no recognition,no recognition,no recognition,no recognition,no recognition,no recognition,recognises,recognises,
8.9,8.9,7.78,"TCR-1 (TCR, V domains shown) Valpha: QTVTQSQPEMSVQEAETVTLSCTYDTSENNYYLFWYKQPPSRQMILVIRQEAYKQQNATENRFSVNFQKAAKSFSLKISDSQLGDTAMYFCAPLGLVAGSARQLTFGSGTQLTVLP Vbeta: GVSQDPRHKITKRGQNVTFRCDPISEHNRLYWYRQTLGQGPEFLTYFQNEAQLEKSRLLSDRFSAERPKGSFSTLEIQRTEQGDSAMYLCASSTDITSYEQYFGPGTRLTVT",7.78,no recognition,no recognition,no recognition,no recognition,no recognition,no recognition,no recognition,no recognition,no recognition,no recognition,recognises,,
22.6,22.6,18.6,"TCR-15 (TCR, V domains shown) Valpha: KQEVTQIPAALSVPEGENLVLNCSFTDSAIYNLQWFRQDPGKGLTSLLLIQSSQREQTSGRLNASLDKSSGRSTLYIAASQPGDSATYLCAVLLTGKLIFGQGTTLQVKP Vbeta: GVTQTPRYLIKTRGQQVTLSCSPISGHRSVSWYQQTPGQGLQFLFEYFSETQRNKGNFPGRFSGRQFSNSRSEMNVSTLELGDSALYLCASSGGPGPSGEQYFGPGTRLTVT",18.6,no recognition,no recognition,no recognition,no recognition,no recognition,no recognition,no recognition,no recognition,no recognition,no recognition,recognises,,
39.1,39.1,4.69,"TCR-2 (TCR, V domains shown) Valpha: QKITQTQPGMFVQEKEAVTLDCTYDTSDQSYGLFWYKQPSSGEMIFLIYQGSYDEQNATEGRYSLNFQKARKSANLVISASQLGDSAMYFCAMREGSDAGGTSYGKLTFGQGTILTVHP Vbeta: GVIQSPRHLIKEKRETATLKCYPIPRHDTVYWYQQGPGQDPQFLISFYEKMQSDKGSIPDRFSAQQFSDYHSELNMSSLELGDSALYFCASSPSTGRLNTEAFFGQGTRLTVV",4.69,no recognition,no recognition,no recognition,no recognition,no recognition,no recognition,no recognition,no recognition,no recognition,no recognition,recognises,recognises,
53.1,53.1,11.4,"TCR-13 (TCR, V domains shown) Valpha: QKITQTQPGMFVQEKEAVTLDCTYDTSDQSYGLFWYKQPSSGEMIFLIYQGSYDEQNATEGRYSLNFQKARKSANLVISASQLGDSAMYFCAMSDPIMDTGRRALTFGSGTRLQVQP Vbeta: GITQSPKYLFRKEGQNVTLSCEQNLNHDAMYWYRQDPGQGLRLIYYSQIVNDFQKGDIAEGYSVSREKKESFPLTVTSAQKNPTAFYLCASKSRGPNLADTQYFGPGTRLTVL",11.4,no recognition,no recognition,no recognition,no recognition,no recognition,no recognition,no recognition,no recognition,no recognition,no recognition,recognises,,recognises
